Consider 13 molecules from article PMC8466238, “Development of High Affinity Calcitonin Analog Fragments Targeting Extracellular Domains of Calcitonin Family Receptors” (Biomolecules, 2021).

“And” between values parts separate entries of the source, which are not always exact repeats. Equal values may be shown once. Read-outs that look alike come from different tables or passages of the source. Where a SMILES comes first, the peptide text is derived from it. Where no end group is shown, it is not given here. [ ]: non-standard residue; d: D form. Hyp = O=C(O)[C@@H]1C[C@@H](O)CN1

One assay has as its target T1, CTR ECD (Homo sapiens, UniProt P30988).
T1 construct: pHLsec/hCTR.34–141-H6 (H-pSL003); H6 (His6) (C); made in house; host or cells: HEK293T
T1 sequence (P30988 34-141): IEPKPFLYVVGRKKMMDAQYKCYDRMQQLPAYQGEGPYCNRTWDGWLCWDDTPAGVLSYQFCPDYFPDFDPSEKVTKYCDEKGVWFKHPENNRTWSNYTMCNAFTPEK
In words: FP competition peptide binding assay with purified CTR ECD, FITC-sCT(22–32) probe. The conditions noted are these: for Ki: CTR ECD 500 nM, FITC-sCT(22–32) 10 nM, mean ± SD of N = 3 independent experiments. An excerpt: The overall procedures of FP peptide binding assay with receptor ECDs and FITC-labeled peptide probes were previously described. […] A SpectraiD5 (Molecular Devices, San Jose, CA, USA) was used to measure fluorescence polarization/anisotropy. Background (reaction buffer only) was subtracted for anisotropy calculation. For the SpectraiD5, G factor (0.38 for FITC-sCT(22–32) and 0.41 for FITC-AC413(6–25) and FITC-AC413(6–25) Y25P) was used to correct the instrumental bias for anisotropy calculation. The polarization (mP) of the FITC-peptide probes only (No receptor ECD) was set close to 50 mP. For the saturation binding assay, the anisotropy values were re-calculated when total fluorescence intensity was changed by more than 10% as previously described. […] Anisotropy values were used to produce non-linear regression curves with PRISM 5.0 (GraphPad software, San Diego, CA, USA) as previously described. KI indicates affinity values obtained from competition binding assay and it was calculated from the non-linear regression curves of anisotropy by using equations previously described. Concentrations of the FITC-labeled peptide and the total receptor protein and the affinity of the FITC-labeled peptide for the receptor protein were incorporated into the equations for the KI calculation of the competitive peptide ligand. Two technical replicates were used for each receptor concentration in the peptide-binding curve. SEM of the anisotropy values of the two replicates at each receptor concentration were presented as error bars in the representative peptide-binding curves. When the error bars were shorter than the height of the symbol, they were omitted in the representative curves. At least three independent peptide binding experiments were performed to obtain three independent peptide-binding curves. Mean and standard deviation of peptide ligand affinity were calculated from them.

The target in assay [1] is T2, RAMP1-CTR ECD fusion protein (hRAMP1.24–111-(GSA)3-hCTR.34–141-H6) (human, UniProt O60894 24-111; P30988 34-141).
T2 construct: human receptor activity-modifying protein 1 (RAMP1), extracellular domain, residues 24-111; linker, printed as (GSA)3; human calcitonin receptor (CTR), extracellular domain, residues 34-141; Secreted from a pHLsec-based vector; also called AMY receptor 1 ECD; RAMP1 ECD-CTR ECD fusion; source: HEK293T, transiently transfected, secreted to cell culture media, purified (IMAC, SEC)
T2 chain: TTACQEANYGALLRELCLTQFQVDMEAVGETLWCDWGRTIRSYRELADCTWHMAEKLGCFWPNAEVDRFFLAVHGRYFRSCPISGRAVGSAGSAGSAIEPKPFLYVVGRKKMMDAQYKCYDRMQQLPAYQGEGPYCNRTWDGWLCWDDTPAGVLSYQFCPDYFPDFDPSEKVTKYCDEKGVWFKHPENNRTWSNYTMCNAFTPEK
The assay is described as follows: fluorescence polarisation; competition binding, full curves: FITC-AC413(6–25) Y25P probe 10 nM, RAMP1-CTR ECD 77 nM, RAMP2-CTR ECD 67 nM or RAMP3-CTR ECD 252 nM, competitive peptide at multiple concentrations, all in solution; KI from non-linear regression of anisotropy. Conditions: both partners purified.

The target in assay [2] is T3, RAMP3-CTR ECD fusion protein (hRAMP3.25–112-(GSA)3-hCTR.34–141-H6) (human, UniProt O60896 25-112; P30988 34-141).
T3 construct: human receptor activity-modifying protein 3 (RAMP3), extracellular domain, residues 25-112; linker, printed as (GSA)3; human calcitonin receptor (CTR), extracellular domain, residues 34-141; Secreted from a pHLsec-based vector; also called AMY receptor 3 ECD; RAMP3 ECD-CTR ECD fusion protein; source: HEK293S GnTI-, transiently transfected (PEI), secreted to cell culture media, purified (IMAC, SEC)
T3 chain: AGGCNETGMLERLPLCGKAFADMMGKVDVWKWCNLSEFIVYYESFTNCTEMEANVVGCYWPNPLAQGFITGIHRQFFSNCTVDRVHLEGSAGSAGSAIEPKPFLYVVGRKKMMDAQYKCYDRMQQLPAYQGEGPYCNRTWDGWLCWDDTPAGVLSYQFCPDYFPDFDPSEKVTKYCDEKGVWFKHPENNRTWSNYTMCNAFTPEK
The description is as above. The conditions noted are these: both partners purified.

The target in assay [3] is T4, RAMP2-CTR ECD fusion protein (hRAMP2.55–140-(GSA)3-hCTR.34–141-H6) (human, UniProt O60895 55-140; P30988 34-141).
T4 construct: human receptor activity-modifying protein 2 (RAMP2), extracellular domain, residues 55-140; linker, printed as (GSA)3; human calcitonin receptor (CTR), extracellular domain, residues 34-141; Secreted from a pHLsec-based vector; also called AMY receptor 2 ECD; RAMP2 ECD-CTR ECD fusion; source: HEK293T, transiently transfected, secreted to cell culture media, purified (IMAC, SEC)
T4 chain: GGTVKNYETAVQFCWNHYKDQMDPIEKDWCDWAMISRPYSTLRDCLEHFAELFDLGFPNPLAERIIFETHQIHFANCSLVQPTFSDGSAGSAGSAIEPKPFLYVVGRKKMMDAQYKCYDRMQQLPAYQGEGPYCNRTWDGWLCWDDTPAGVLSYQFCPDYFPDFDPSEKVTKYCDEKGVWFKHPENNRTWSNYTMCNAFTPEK
The assay is described as above. Conditions: both partners purified.

The target of assay [4] is T5, calcitonin receptor extracellular domain (hCTR.34–141-H6) (human, UniProt P30988 34-141).
T5 construct: human calcitonin receptor (CTR), extracellular domain, residues 34-141; Secreted from a pHLsec-based vector; also called CTR ECD; purified CTR ECD; source: HEK293T, transiently transfected, secreted to cell culture media, purified (IMAC, SEC)
T5 sequence (looked up): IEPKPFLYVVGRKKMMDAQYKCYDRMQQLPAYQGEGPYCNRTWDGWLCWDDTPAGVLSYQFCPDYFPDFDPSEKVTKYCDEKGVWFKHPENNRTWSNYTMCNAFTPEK
In words: fluorescence polarisation; competition binding, full curves: FITC-sCT(22–32) probe 10 nM, CTR ECD 500 nM, competitive peptide at multiple concentrations, all in solution; KI from non-linear regression of anisotropy. Conditions: both partners purified.

The mark [5] stands for this setting: Figure 2b experiment set, read-out: pKI Mean ± SD (converted).
The mark [6] stands for this setting: Figure 1d experiment set, pKI = –log10[KI] (M).

As for YPRTDTGVGTP-NH2 [sCT(22–32) N26D/S29V], the Ki on CTR ECD (setting [5]) is 5.89e-07 M.
Consider `C[C@@H](O)[C@H](NC(=O)[C@H](CC(=O)O)NC(=O)[C@@H](NC(=O)[C@H](CCCNC(=N)N)NC(=O)[C@@H]1CCCN1C(=O)[C@@H](N)Cc1ccc(O)cc1)[C@@H](C)O)C(=O)NCC(=O)N1C[C@H](O)C[C@H]1C(=O)NCC(=O)N[C@H](C(=O)N1CCC[C@H]1C(N)=O)[C@@H](C)O` [sCT(22–32) N26D/S29HYP] (H-YPRTDTG[Hyp]GTP-NH2; N-terminus assumed), for which, on CTR ECD (Figure 3b experiment set, read-out: pKI Mean ± SD (converted)), the Ki was 3.16e-06 M. Moreover, the “affinity decrease for the CTR ECD compared to sCT(22–32) with N26D/S29P mutations” value on CTR ECD (Figure 3b, ratio of KI values, versus sCT(22–32) N26D/S29P) is 13 fold.
The molecule YPRTNTGPGTP-NH2 [sCT(22–32) S29P] gave a Ki at CTR ECD (setting [6]) of 3.47e-07 M.
Take YPRTDTGSGTP-NH2 [sCT(22–32) N26D]: the Ki on CTR ECD (setting [5]) was 9.77e-07 M; on CTR ECD (setting [6]) it was 1e-06 M.

B1: sCT(22–32) P32HYP (peptide)
peptide: YPRTNTGSGT[Hyp]-NH2
modifications: N-terminus assumed
SMILES: C[C@@H](O)[C@H](NC(=O)[C@H](CC(N)=O)NC(=O)[C@@H](NC(=O)[C@H](CCCNC(=N)N)NC(=O)[C@@H]1CCCN1C(=O)[C@@H](N)Cc1ccc(O)cc1)[C@@H](C)O)C(=O)NCC(=O)N[C@@H](CO)C(=O)NCC(=O)N[C@H](C(=O)N1C[C@H](O)C[C@H]1C(N)=O)[C@@H](C)O
notes: salmon calcitonin (sCT), residues 22-32, with P32HYP; numbers count on: the mature 32-residue hormone; Residue 32 is hydroxyproline, not plain proline; source: synthetic peptide (Genscript, HPLC-purified)
Turning to B1, the Ki in assay [1] turned out to be 887 nM; in assay [2], 995 nM; in assay [3] it was 1430 nM; in assay [4] it was 887 nM. The pKI in assay [1] is 6.05 -log10(M); in assay [2], 6 -log10(M); in assay [3], 5.85 -log10(M); in assay [4], 6.05 -log10(M).

B2: sCT(22–32) (peptide)
peptide: YPRTNTGSGTP-NH2
notes: salmon calcitonin (sCT), residues 22-32; numbers count on: the mature 32-residue hormone; also called wild-type sCT(22–32); salmon calcitonin fragment 22–32; source: synthetic peptide (Genscript, HPLC-purified)
Turning to B2, the Ki was 2550 nM in assay [1]; 2560 nM in assay [2]; 2800 nM in assay [3]; 2030 nM and 1760 nM in assay [4]. Besides, the pKI in assay [1] is 5.59 -log10(M); in assay [2], 5.59 -log10(M); in assay [3], 5.55 -log10(M); in assay [4], 5.75 -log10(M) and 5.69 -log10(M).

B3: sCT(22–32) S29P (peptide)
peptide: YPRTNTGPGTP-NH2
notes: salmon calcitonin (sCT), residues 22-32, with S29P; numbers count on: the mature 32-residue hormone; source: synthetic peptide (Genscript, HPLC-purified)
As to B3, in assay [4], the Ki stood at 343 nM and the pKI was 6.46 -log10(M).

B4: sCT(22–32) N26D/S29HYP (peptide)
peptide: YPRTDTG[Hyp]GTP-NH2
modifications: N-terminus assumed
SMILES: C[C@@H](O)[C@H](NC(=O)[C@H](CC(=O)O)NC(=O)[C@@H](NC(=O)[C@H](CCCNC(=N)N)NC(=O)[C@@H]1CCCN1C(=O)[C@@H](N)Cc1ccc(O)cc1)[C@@H](C)O)C(=O)NCC(=O)N1C[C@H](O)C[C@H]1C(=O)NCC(=O)N[C@H](C(=O)N1CCC[C@H]1C(N)=O)[C@@H](C)O
notes: salmon calcitonin (sCT), residues 22-32, with N26D and S29HYP; printed as YPRTDTG[HYP]GTP-NH2, the hydroxyproline at 29 is written here as P; numbers count on: the mature 32-residue hormone; Residue 29 is hydroxyproline, not plain proline; source: synthetic peptide (Genscript, HPLC-purified)
In the case of B4, in assay [4], the Ki is 3180 nM and the pKI was 5.5 -log10(M).

B5: sCT(22–32) N26D/S29P/P32HYP (peptide)
peptide: YPRTDTGPGT[Hyp]-NH2
notes: salmon calcitonin (sCT), residues 22-32, with N26D, S29P and P32HYP; numbers count on: the mature 32-residue hormone; Residue 32 is hydroxyproline, not plain proline; also called the mutated sCT(22–32); sCT(22–32) with the combined mutations (N26D, S29P, and P32HYP); source: synthetic peptide (Genscript, HPLC-purified)
Take B5: the Ki in assay [1] came to 124 nM; in assay [2], 118 nM; in assay [3] it was 340 nM; in assay [4] it was 95 nM. For the same molecule, the pKI is 6.91 -log10(M) in assay [1], 6.93 -log10(M) in assay [2], 6.47 -log10(M) in assay [3] and 7.02 -log10(M) in assay [4].

B6: sCT(22–32) N26D/S29P (peptide)
peptide: YPRTDTGPGTP-NH2
notes: salmon calcitonin (sCT), residues 22-32, with N26D and S29P; numbers count on: the mature 32-residue hormone; source: synthetic peptide (Genscript, HPLC-purified)
B6: the Ki was 381 nM in assay [1]; 333 nM in assay [2]; 470 nM in assay [3]; 239 nM and 314 nM in assay [4]. In addition, the pKI is 6.42 -log10(M) in assay [1]; 6.48 -log10(M) in assay [2]; 6.33 -log10(M) in assay [3]; 6.62 -log10(M) and 6.5 -log10(M) in assay [4].

B7: sCT(22–32) N26D/S29A (peptide)
peptide: YPRTDTGAGTP-NH2
notes: salmon calcitonin (sCT), residues 22-32, with N26D and S29A; numbers count on: the mature 32-residue hormone; source: synthetic peptide (Genscript, HPLC-purified)
As to B7, in assay [4], the Ki came to 437 nM and the pKI is 6.36 -log10(M).

B8: sCT(22–32) N26D (peptide)
peptide: YPRTDTGSGTP-NH2
notes: salmon calcitonin (sCT), residues 22-32, with N26D; numbers count on: the mature 32-residue hormone; also called sCT(22–32) N26D backbone peptide; source: synthetic peptide (Genscript, HPLC-purified)
As for B8, in assay [4], the Ki is 980 nM and 1000 nM; the pKI is 6.01 -log10(M) and 6 -log10(M).

B9: sCT(22–32) N26D/S29V (peptide)
peptide: YPRTDTGVGTP-NH2
notes: salmon calcitonin (sCT), residues 22-32, with N26D and S29V; numbers count on: the mature 32-residue hormone; source: synthetic peptide (Genscript, HPLC-purified)
Take B9: in assay [4], the Ki was 591 nM and the pKI was 6.23 -log10(M).
